Measured values published in patent US20100047164A1.

Biological target: chondroitin sulfate proteoglycan (human) (UniProt Q6UVK1)

9.2.27 PE38-KDEL (from UniProt P11439) (scFv)
IC50 cytotoxicity, A375 (Expt 2) melanoma cells (9.2.27F10): 4.5 µg/mL
IC50 cytotoxicity, A375 (Expt 2) melanoma cells (9.2.27F11): 4.5 µg/mL
IC50 cytotoxicity, A375 (Expt 3) melanoma cells (9.2.27F11): 0.6 µg/mL
IC50 cytotoxicity, D54 glioma cells (9.2.27F10): 0.055 µg/mL
IC50 cytotoxicity, D54 glioma cells (9.2.27F11): 0.07 µg/mL
IC50 cytotoxicity, D79 glioma cells (9.2.27F10): 0.22 µg/mL
IC50 cytotoxicity, D79 glioma cells (9.2.27F11): 0.1 µg/mL
IC50 cytotoxicity, D245 glioma cells (9.2.27F10): 0.008 µg/mL
IC50 cytotoxicity, D245 glioma cells (9.2.27F11): 0.006 µg/mL
IC50 cytotoxicity, D247 glioma cells (9.2.27F11): 0.08 µg/mL
IC50 cytotoxicity, H350 melanoma cells (9.2.27F10): 0.02 µg/mL
IC50 cytotoxicity, H350 melanoma cells (9.2.27F11): 0.02 µg/mL
IC50 cytotoxicity, Malme3M melanoma cells (9.2.27F10): 0.018 µg/mL
IC50 cytotoxicity, Malme3M melanoma cells (9.2.27F11): 0.02 µg/mL
IC50 cytotoxicity, SKMel2 melanoma cells (9.2.27F10): 2.4 µg/mL
IC50 cytotoxicity, SKMel2 melanoma cells (9.2.27F11): 0.7 µg/mL
IC50 cytotoxicity, SKMel5 melanoma cells (9.2.27F10): 0.35 µg/mL
IC50 cytotoxicity, SKMel5 melanoma cells (9.2.27F11): 0.2 µg/mL
IC50 cytotoxicity, TB2620 glioma cells (9.2.27F10): 0.5 µg/mL
IC50 cytotoxicity, TB2620 glioma cells (9.2.27F11): 0.18 µg/mL

MEL-14 PE38-KDEL (from UniProt P11439) (scFv)
IC50 cytotoxicity, A375 (Expt 2) melanoma cells (Mel14-KDEL): 0.5 µg/mL
IC50 cytotoxicity, A375 (Expt 3) melanoma cells (Mel14-KDEL): 0.45 µg/mL
IC50 cytotoxicity, D54 glioma cells (Mel14-KDEL): 0.05 µg/mL
IC50 cytotoxicity, D79 glioma cells (Mel14-KDEL): 0.2 µg/mL
IC50 cytotoxicity, D245 glioma cells (Mel14-KDEL): 0.004 µg/mL
IC50 cytotoxicity, D247 glioma cells (Mel14-KDEL): 0.1 µg/mL
IC50 cytotoxicity, H350 melanoma cells (Mel14-KDEL): 0.008 µg/mL
IC50 cytotoxicity, Malme3M melanoma cells (Mel14-KDEL): 0.001 µg/mL
IC50 cytotoxicity, SKMel2 melanoma cells (Mel14-KDEL): 0.036 µg/mL
IC50 cytotoxicity, SKMel5 melanoma cells (Mel14-KDEL): 0.06 µg/mL
IC50 cytotoxicity, TB2620 glioma cells (Mel14-KDEL): 0.15 µg/mL
